Measurements taken from the NTF2 design screens of Basanta et al. (2020).

assay: protease stability score; higher = more stable; yeast display proteolysis, trypsin and chymotrypsin;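 further: relative to predicted unfolded state with 0 unfolded-like and 1 meaning tenfold more protease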

Sequence	protease stability score
DEENEHSEKISEEVLHALHTGDWNRLAHLADPHTLLIIEYGDKEIVNHGWEVFVKWILDVFRKVKNIKVHIRDSKVIGDKIHLDVEIHFNGRTTTVHIDITIIDGRLHSIHINHK	1.8
NEDEEIWRKAHEFMIHAMKTGDEDVEKSLFDPHTRFEQGDKELHGREMIEHLLRLLRERFPNVQIRRMEIQHWDHFNGVLIEFGELRVDVNGRTVSLRIIIYAEKINGQWHVKRVEFD	1.52
RDEESHLKHLAERIMKSWETGDEHTLRHLFDPNTRSHVEVGDKRWSFIGMENFDRWFRELHEEMGANHTTVHDTKIQGNKLTMDTRLLVGDKEIRTRLIFHIVDGRITHIIIKLE	1.31
DEEDRELEEMLELIIHAFKTGDEEIMKRLFDPNTRIRINGREEIGWEHAVKILREWRFRHVILRRKHKQGDKLHYEFEVHGHFDGQQDSVHVRILILKVNGRWIITEYIFV	2.51
DENDTARKIIKTLLDIMREGDEDKLRDQMDPNVRADVGDKTVHGREHAAKFLAHIVKRADHISITLKSLHNHNGRLRMQAEVRIVHNGRTERVTLEMVFRDHNGKLLIERMKYG	2.36
TEEEDEASRLMEEFLKHHETGDWEELKKMADPDARYHETVNGKRIERHGRDDLITWLRKFLEKFKNMRLHIDEMRLIGNKNILHGTLRIGDKDIESRIILIIIDGRIKEIEIIIK	1
EEEEKVEHDLLRLFAEALSTGNEHIMAELLDPHVRIIVNGKHNIGRETRKTFIEHIRVRSEDVRIRTIEVQGDKIITDSEMDIILDFDGVRTTTTVEVQIIIWKYNGKWYIKMVKFK	1.36
DEEEEDVRRAVEIWERSLRTGDEHEVKRFVDPHTRLEVDGREFHGREQFIEVMRHWRFRHFQIRDFRVIDGRADVDAISEVDYNGRRFEVKTIIIVIKINGRWVLHSLNIR	1.63
TEEHRATHDYVELLIRAARTGDEDIWKTMFDPDDKLVINGRTHHGREEAVRLLREIRIQIDHVDLREVRVYDGVVEIHTHTELRIIQGDKHLEIRTDQEVHILKIDGRWSNSIVIIH	1.06
DEEERLQEELTKRLIHDFETGDFEAILELFDPHVRVFVNGKDDHGWEMLERSWREMGIDHMQIRDFELHHINGRLEVRIRTEIRVGDKTMDTIIILNVQKYDGRWRIHKVEITIR	1.24
DEEDRRAKEIMRLLLEDFHTGNEDSLRELMDPTTRNDLVVNGQEHVIHGRETFAEWESKWIKHLRMNLRLRHVNAFNGQVRLETELNLEVNGRIIILDTEVIVHVYNGRIHSFTHRIK	0.236
DEEEKWIRHILELVLRAEKTGDEDRLSELMDPDVKLDIDGRDLHGREKVKEWIEELKHKFKNLRIIDRDIRIYGEKHNVHGELHFNGQTHSAIIILRIVDGRIKEIFVIHV	1.32
SEIEELMKISLREFLHSSETGDEEHHNRYADPNVRLEIGDKTLIGWEALEHLLEHWKREAGIEKIELHIHVTRIHVQGEKLEFDGHLEVRQGDKVNHVKVTLVITKIDGKWVLHSVVFI	0.367
DEEEELVREFLHRLKQSHETGDEKMYRENADPDVRIEVNGVTIHGMERATRWASEMRFKHEELRHIEVDENHVHIDGIVKGRINGRDVETKVHFHVRKVNGVWLLKRIKFT	0.956
SEDENILRRVVNILLHVWMTGDEDSLKELIDPHARMDFDGQEVHGREEITRLIRTILHELGIKHFELHRHHIDVQGDKAHIEVDGVDDVDGRKVKVIIRMHVLKVNGRWKTRIVYFERQ	1.65
DEEDNMMREIWKQLVDNQRTGDEDRLQDLIDPHVRIIINIDGRELRSHGRHELVRWLREMGVDYLDIKSYRLQGDKIETDGTLSIGDKTKEVEVRYNIIDGRTKEVEFHLR	0.167
SEDHKASHFNLILLLRAINTGDEDLEKELADPHVRYEFNGVDLVGMEDWVRFLEEIRVHPRDVKIQRHRVVNGRITFDVRLEGEFTYNGRTYRDTRETTAFVLKVNGRWIMHLHRID	1.48
TEEENMNEENLDLAVHLMHTGDEEHLFDRLDPHARLEYGDKKYHGREIVEEVLLTLIRELGVDHIRVRRVKFVGDKLHIDSEFTVGDKVFRLHLVARKINGRWWLHSMRVQ	1.34
DEDERDTRLALEELLRVSRTGNEHDHHRLVDPHVRMEINGRELHGWEVLVRLMHRYDHQELRVREVRVIGDKIDVDTENIVNFNGVEIVLETSIVARKIDGRWLIHSIHIG	1.23
SEEEEMTRLALEIFHRVYKTGDEDKYRDLADPHVRLVVGDKTFHGREHYLKFFRHIRIHHSHLDDFEIQGDKAILDTTIDVNINGKRHWIKTHVISVKVNGQWRLHSEELS	0.178
SEEEESARRAWEKILHVLETGDERDSRRLMDPDTKIEQGDKTEHGMEKIAKMITEWRFHDVKLTDMRVIGDKVEIDGTVRGEFDGREYKIHVFILVVKINGRWVIHKTVLG	1.06
TEDDEHLEEEAEEYKEYVRTGDWKKIFELADPHTKIDIGNYKRHGMEDFLRDVIHVYTKLGVTIEHHVHDVRVINGRAHVNMEVRVHYGEKDERIKTTLIMRKVDGRWKLTSIHFK	1.15
SEDEKRLLDLAKEWIHNWLTGDEESMQKLADPSTRYEIGDKELHGMEEVNRSIKISLDELRVKHIDIERVKAINGVVTIHTRIDVEFNGKRMIIETIIRIDIFNGRIKQVWVEFR	1.21
DEEQQDLIEVVNRYLRAVLTGDEDDLRELLDPHYRIRIGDKEFVGWKEFIRHVREARYTIHRWSVDSVEIIGDKVILYGELDGIEKVNGKTIKKRFEVIFYINKIDGRWHFKHIEFH	2.29
SELEEYLTYLSKLFVHALITGNEDKYTEEFDPRTRFEMLINGRRIEYHGRESVREFLRHFLEEWRIHHIDTTEIEFIGDKARIHGEQEVHFNGRNITTKVRIDILFYNGKMRDIRIEIE	2.15

Sequence	protease stability score
SESEEFLEKAYRLIEESLRTGDFREMLSNIDPNARFRYGNFDFHGRENLEFMLKELSKRIDHFHNSHIRRVNVINGRMHLHTSMHVEYDGKKEEVETEWVLLKVDGQWLIKEVTVI	2.51
DEIHKDAHRFVELLLRLLRTGDEDSIEKLMDPHAKININGQERIGREETIELALHWRNDDHHIHDMITINGRVDVHGRVKGEFDGRHQEFTFRLIVLKVNGRWVNESHHYI	0.83
DEHDRDARRFTDILLEAFMTGDEDLSHKMLDPNMRLHINGKIHHGRELATELLHEMRIERLVIEDYRIHYQGEKVHVTLHGRLHGRVDGKEHNSEVNIFINIEKVNGKWIVRSFTLKIH	1.47
SEDEEVVKEWIKVVLHSMVTGDEDDVRRLFDPHTRIEINGVLFIGRKWAETLARRVDHHHIETIEYHRSHVVDGVATVDGTFRGREEVDGRKIEHHFRIEFVIMKIDGRWVTQQMRIK	1.56
SELEERAEKMTKEFERAFVTGNWEEQVKLLDPNVRIDINGVIFVGREQYERLVREIWMHVEDFRVTSLELQGEKARTHVESDVIIRVNGRDIRKKTEEEIVVSKINGVWSVERIHVR	1.24
SEKHEHAHRIMEIILRAWETGDEESLRELLDPNVRFIQGDKDVVGREEMSRVLHEFREHIRLKSIHIHDKHAINGVFHLDIRIWGNVNGRDDHIEVNYTVVIVDGKIRDLEVRIH	1.06
HEEQKAIEEWAKRLWDVLLTGDEDELHELLDPHVKLEVHVDGKTIHRHGREEVIRFMVEMRIRDFKIEHVQMYGDKLHMNTRSRGIYNGKHRETEVSIIVTVVNGRLKMIIIEIR	2.06
DELHKFAEEFMKIFVHNFFTGDWRTMHELLDPHVRLDFNGVEHIGRENVLKFWEEIRRRYDHFHIEVKRVETQGEKAHSDVHLEFRINGQEEHRKQHWHLDVINGRIHSFFVEVE	2.03
REDEEFAIHMFLNLIRWLMTGDEEQLEELADPDTKYHQGDKTLHGREEFLKWFHLMHKWLGIKHIEMRITDLRAVDGRVESEVSVDEHYDGRTKRYRTIIIVNVVNGKLKSEERHID	1.22
DEHEELMEEFMRKILHAWLTGDWDLINEMADPDVRTNINGRNEIGREEFEKLWQEIRFRRFDLKRWHVFNGVIHIDGHIDGEVNGRRTKRDVLIRLFIFNGRLKKEEVEYL	1.55
DEDEEEVRKFLHLELRSMETGDEHDLRRLADPHVRIHINGVILHGWEFFLETFRKLGFDHLRIEHVEVQGEKVHIKSRFEIGDKSFETEIIIRKVDGRWYVESIIVN	0.873
SEEQRLSEELFKRLVDYLLTGDWHSLKELLDPHVKVVVNGKEEIGRERMARHWLELHEKVPNMKSEFRLRYYEIQGDKAHYEVEIILHVNGRIRHIDIEVVMEKVDGRWMLHSITIR	1.3
SELEELMKRLVKDWLHNWITGNEDRIWELADPDALVHFDGVISHGREEVIKLIRRFTEELRIHRIQIDHIKIQGDKIHIHLTEDGTIGDKRKEINVEIILFIINGKFKSSEIRIR	1.49
SEWDELLRHILEVMINSVLTGDEHRQLWMADPHAKVHFENHEVHGRDHWSHLVREHINEIRMRIHLHDEKTVGNFAVSDVRYREEVNGVELSTEIELILIVVDGRLKQIEFRYH	-0.029
SAEEHAQRVILELLIEAYETGDEDMLRRLFDPNVRIEIGDKDFVGREDFDHLLERVKNVVFHEIRLRDVKVYNGKVEDNGEINIRYGDKSRTHQVKIVMIKVDGRWMLHDFEIK	1.96
SEDEHEALKVSEQFIRDLLTGDEDTFNRLADPNTRSEVGNKRQHGMDEVTHLWKELRIEDFTLRDQKIRIIGDKAEIDMDGEMVIIVNGKRVVQRVTLHLRVRKINGRWILHSIKLHIE	1.3
DEDERNHEEIWELFLRVVMTGDWNLHKEMLDPHVRIDIDGVHIHGREEAVKHIRHLRVELNHFHIEDVKIVNGRARIQTHEEVTIRIDGVRIETRRSTELIMIKVDGRWLLHHEIVR	0.524
DKREHDMERWFKLWWHTLMTGDEDLYHELLDPNARIVQGEKHHHGRENLVEYFTHLVEEMRIRHFHLHDMRFQGEKNDIDGHIDITINGQRHDTRFTIHLLIVNGKLRHVELRIL	0.506
DEDKESAKTLVELLVEVLSTGDWKELLHLMDPNTRININGREVHGWHSMHELLRRMIEELRIKRLHLTEVRAQGDKVHVSSKMRVNIDGQDRLTQTHIDVHVFDGVIKTWTMHIE	1.01
EEEHKFITDIVRLFQELLRTGDFTLLRRMIDPHARIDINGVENHGWEKTARHIWELGMTRESEVRIRDVKVYDGRVEIDIEVEIHNDYNGRKIVVRHEIILFVIKFNGRWNLEQIHIK	1.65
HEMQEEAHIATELIIDTFKTGDEKKMRELFDPTPRLHQGDKRFHGREEVVHIISERIHRFGFNHIEVKTVRVQGDFIIVHGEKDVNGQRVEVILHIWKYDGRWEVHRIEIR	1.23
SEEEELAERMIRIWQKDIRTGNEESLSKFIDPNVRNEYGDKTHHGRHVFADVIRRILDELGVTNVHSRLTRMEIQGDKVRVDVQINIDGQEYRIEVHFEKVNGRWNVTSWNIR	0.698
SEEDQHIEEALRRISKVIHTGDEDKLEELVDPHVRLDVGDKVFHGWEDFVRFMTELRFHHMHVTHLETQGDKVRVELSLDREQGDKRKEMHAHIVLEKIDGKWVVREVEMR	1.35
SEDQHDAEWALRLFVRLHETGDFEEIYRNADPNMRWFVNGVDSHGRENASKLLHKLMDDLGIDHVQIEHVELRVQGEKIIVHMRVTQVINGREVDSRIEVHMEKFDGKWELKHVELRIH	1.31
SKEEDMMRKIVEDFSRAQWTGDEKKVDELLDPNTRSDINGVHIVGMEEYLRVMKHRGVEFKHSEIKDVNLQGDKATWDGIDHVNFNGKDIELQVHIYLRKINGRWSIHTLKVQ	0.386
